Assay [1] concerns diabetes-induced obesity (DIO) mice. Put plainly: Blood glucose after glucose injection in DIO mice. The class given is in vivo. The note with it: 2 nmol/kg intraperitoneally 15 min before […] glucose, FIGS. 12, 13. As for the experimental part: Six groups of diabetes-induced obesity (DIO) mice (eight mice per group) having an initial average body weight of 49.5 g were intraperitoneally injected with 2 nmol/kg of a PBS vehicle control or one of Peptides A-E described below:
Fifteen minutes after injection with one of the compounds or with vehicle control (at time point 0), a 25% (w/v) glucose saline solution was injected at a dose of 1.5 g per kg of body weight. Blood glucose concentrations of the mice were measured at the time of injection of the compound or vehicle control, at the time of glucose injection, and at 15, 30, 60, and 120 minutes after glucose injection.
Blood glucose levels of the mice were measured as described in Example 5.
Nine groups of diabetes-induced obesity (DIO) mice (8 mice per group) having an initial average body weight of 56 g were intraperitoneally injected once and followed for one week with 15 or 70 nmol/kg of Peptides Y, Z, F-Peg, and G-Peg described below or PBS vehicle control.
Sixty minutes after injection with one of the peptides or with vehicle control (at time point 0), a 25% (w/v) glucose saline solution was injected at a dose of 1.5 g per kg of body weight. Blood glucose concentrations of the mice were measured at the time of injection of the peptide or vehicle control (at time point −60), at the time of glucose injection (at time point 0), and at 15, 30, 60, and 120 minutes after glucose injection.

In another assay the target is GLP-1 receptor (Homo sapiens, UniProt P43220). Put plainly: cell-based or functional assay.

Side-chain parts run from the residue outwards. [ ]: non-standard residue; d: D form. The star is where a group is joined. Desaminohistidyl = O=C(CCc1c[nH]cn1)*; PLA = phenyl lactic acid; Aib = CC(C)(N)C(=O)O

Sequence of GLP-1 receptor (P43220 24-463 limits assumed): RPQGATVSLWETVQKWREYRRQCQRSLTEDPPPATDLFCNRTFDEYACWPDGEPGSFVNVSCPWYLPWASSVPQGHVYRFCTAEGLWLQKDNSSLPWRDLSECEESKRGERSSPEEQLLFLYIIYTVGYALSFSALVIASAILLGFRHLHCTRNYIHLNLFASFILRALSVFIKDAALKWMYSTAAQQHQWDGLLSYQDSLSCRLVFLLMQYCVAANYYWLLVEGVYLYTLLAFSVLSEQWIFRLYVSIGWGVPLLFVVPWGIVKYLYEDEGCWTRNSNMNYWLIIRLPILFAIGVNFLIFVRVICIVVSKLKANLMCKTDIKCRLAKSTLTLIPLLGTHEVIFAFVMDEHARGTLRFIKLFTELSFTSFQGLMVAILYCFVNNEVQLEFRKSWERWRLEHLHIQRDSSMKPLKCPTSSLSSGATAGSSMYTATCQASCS

Take “Peptide C: prodrug of Peptide B, dipeptide d-Phe-d-Val attached via the O-terminus ({dF-dV-PLA}-[Aib]EGTFTSDVSSYLEEQAAKEFIAWLVKGRPSSGAPPPS-NH2; also: PLA bonded to D-Val via an ester bond)”: the “blood glucose after glucose injection compared with corresponding non-prodrug form” value in assay [1] is recorded as “higher than the blood glucose levels of mice injected with the corresponding non-prodrug forms”.

For “Peptide A: prodrug of Peptide B, dipeptide d-Phe-dPhe attached via the O-terminus ({dF-dF-PLA}-[Aib]EGTFTSDVSSYLEEQAAKEFIAWLVKGRPSSGAPPPS-NH2; also: PLA bonded to D-Phe via an ester bond)”, in assay [1], the “blood glucose after glucose injection compared with corresponding non-prodrug form” value was “higher than the blood glucose levels of mice injected with the corresponding non-prodrug forms”. For G^5V^6-O-F^7,GLP(8-36)CEX (peptide), in the assay with GLP-1 receptor, the % potency with respect to parent; before incubation came to 10.9%, the % potency with respect to parent; prodrug incubated in PBS for 24 hrs before the assay is 46% and the % potency with respect to parent; prodrug incubated in PBS for 168 hrs before the assay is 95.8%. Consider HO-F^5F^6-O-F^7,GLP(8-36)-CEX (peptide), for which, in the assay with GLP-1 receptor, the % potency with respect to parent; before incubation was found to be 3.7% and the % potency with respect to parent; prodrug incubated in PBS for 24 hrs before the assay was 17.2%.

“Peptide G: prodrug of Peptide F, d-Phe-dVal ester-linked to the Ser at position 2 of Peptide F ([Desaminohistidyl]S([dV-dF])EGTFTSDVSSYLEEQAAKEFIAWLVKGRPSSGAPPPS-NH2; SMILES CC[C@H](C)[C@H](NC(=O)[C@H](Cc1ccccc1)NC(=O)[C@H](CCC(=O)O)NC(=O)[C@H](CCCCN)NC(=O)[C@H](C)NC(=O)[C@H](C)NC(=O)[C@H](CCC(N)=O)NC(=O)[C@H](CCC(=O)O)NC(=O)[C@H](CCC(=O)O)NC(=O)[C@H](CC(C)C)NC(=O)[C@H](Cc1ccc(O)cc1)NC(=O)[C@H](CO)NC(=O)[C@H](CO)NC(=O)[C@@H](NC(=O)[C@H](CC(=O)O)NC(=O)[C@H](CO)NC(=O)[C@@H](NC(=O)[C@H](Cc1ccccc1)NC(=O)[C@@H](NC(=O)CNC(=O)[C@H](CCC(=O)O)NC(=O)[C@H](COC(=O)[C@H](NC(=O)[C@H](N)Cc1ccccc1)C(C)C)NC(=O)CCc1c[nH]cn1)[C@@H](C)O)[C@@H](C)O)C(C)C)C(=O)N[C@@H](C)C(=O)N[C@@H](Cc1c[nH]c2ccccc12)C(=O)N[C@@H](CC(C)C)C(=O)N[C@H](C(=O)N[C@@H](CCCCN)C(=O)NCC(=O)N[C@@H](CCCNC(=N)N)C(=O)N1CCC[C@H]1C(=O)N[C@@H](CO)C(=O)N[C@@H](CO)C(=O)NCC(=O)N[C@@H](C)C(=O)N1CCC[C@H]1C(=O)N1CCC[C@H]1C(=O)N1CCC[C@H]1C(=O)N[C@@H](CO)C(N)=O)C(C)C)”: the “blood glucose after glucose injection compared with corresponding non-prodrug form” value in assay [1] is recorded as “higher than the blood glucose levels of mice injected with its corresponding non-prodrug form”.

The values above are taken from patent US20110065633A1, “ESTER-BASED PEPTIDE PRODRUGS” (INDIANA UNIVERSITY RESEARCH AND TECHNOLOGY CORPORATION, priority 2008, published 2011).
